According to US20260167959A1, “APTAZYME-BASED REGULATABLE GENE EXPRESSION SYSTEMS” (REJUVENATE BIO INC, priority 2022, published 2026):
Where a chain is given by its changes, count along the chain named.

B1: RA417 (nucleic acid)
DNA: GCGCGTCCTGGATTCGCGGAAACGCGTACATCCAGCTGACGAGTCCCAAATCGGAATACCAGCATCGTCTTGATGCCCTTGGAAGTCCGAGGACGAAACGCGC
modifications: expressed or natural sequence
B2: RA424 (nucleic acid)
DNA: GCGCGTCCTGGATTCGCGGAAACGCGTACATCCAGCTGCGAGAATACCAGCATCGTCTTGATGCCCTTGGAAGTCTCGACGAGTCCCAAATAGGACGAAACGCGC
modifications: expressed or natural sequence
B3: RA407 (nucleic acid)
DNA: GCGCGTCCTGGATTCGCGGAAACGCGTACATCCAGCTGACGAGTCCCAAATAGGACGGAATACCAGCATCGTCTTGATGCCCTTGGAAGTCCGAAACGCGC
modifications: expressed or natural sequence
B4: RA408 (nucleic acid)
DNA: GCGCGTCCTGGATTCGCGGAAACGCGGGAATACCAGCATCGTCTTGATGCCCTTGGAAGTCCTACATCCAGCTGACGAGTCCCAAATAGGACGAAACGCGC
modifications: expressed or natural sequence
B5: RA423 (nucleic acid)
DNA: GCGCGTCCTGGATTCGCGGAAACGCGTACATCCAGCTGACGAGCCGGAATACCAGCATCGTCTTGATGCCCTTGGAAGTCCGGTCCCAAATAGGACGAAACGCGC
modifications: expressed or natural sequence
B6: RA418 (nucleic acid)
DNA: GCGCGTCCTGGATTCGCGGAAACGCGTACATCGAGAATACCAGCATCGTCTTGATGCCCTTGGAAGTCTCGCCAGCTGACGAGTCCCAAATAGGACGAAACGCGC
modifications: expressed or natural sequence
B7: RA411 (nucleic acid)
DNA: GCGCGTCCTGGATTCGCGGAAACGCGTACATCCAGCTGACGAGTCCCAAATAGCGAGAATACCAGCATCGTCTTGATGCCCTTGGAAGTCTCGGACGAAACGCGC
modifications: expressed or natural sequence
B8: RA420 (nucleic acid)
DNA: GCGCGTCCTGGATTCGCGGAAACGGAGAATACCAGCATCGTCTTGATGCCCTTGGAAGTCTCCGTACATCCAGCTGACGAGTCCCAAATAGGACGAAACGCGC
modifications: expressed or natural sequence
B9: RA421 (nucleic acid)
DNA: GCGCGTCCTGGATTCGCGGAAAGAGAATACCAGCATCGTCTTGATGCCCTTGGAAGTCTCCGCGTACATCCAGCTGACGAGTCCCAAATAGGACGAAACGCGC
modifications: expressed or natural sequence
B10: RA415 (nucleic acid)
DNA: GCGCGTCCTGGATTCGCGGACCGGAATACCAGCATCGTCTTGATGCCCTTGGAAGTCCGGAACGCGTACATCCAGCTGACGAGTCCCAAATAGGACGAAACGCGC
modifications: expressed or natural sequence
B11: RA413 (nucleic acid)
DNA: GCGCGTCCTGGATTCGCGGAAACGCGTAGAATACCAGCATCGTCTTGATGCCCTTGGAAGTCTACATCCAGCTGACGAGTCCCAAATAGGACGAAACGCGC
modifications: expressed or natural sequence
B12: RA419 (nucleic acid)
DNA: GCGCGTCCTGGATTCGCGGAAACGCGTACATCCAGCTGACGAGTCCCAAATAGGACGAAAGAATACCAGCATCGTCTTGATGCCCTTGGAAGTCTACGCGC
modifications: expressed or natural sequence
B13: RA412 (nucleic acid)
DNA: GCGCGTCCTGGATTCGCGGAGTGATACCAGCATCGTCTTGATGCCCTTGGCAGCACTAAACGCGTACATCCAGCTGACGAGTCCCAAATAGGACGAAACGCGC
modifications: expressed or natural sequence
B14: RA409 (nucleic acid)
DNA: GCGCGTCCTGGATTCGCCGAGAATACCAGCATCGTCTTGATGCCCTTGGAAGTCTCGGGAAACGCGTACATCCAGCTGACGAGTCCCAAATAGGACGAAACGCGC
modifications: expressed or natural sequence
B15: RA414 (nucleic acid)
DNA: GCGCGTCCTGGATTCGCGGAAACGCGTACATCCAGCTGACGAGTCCCCCGGAATACCAGCATCGTCTTGATGCCCTTGGAAGTCCGGAAATAGGACGAAACGCGC
modifications: expressed or natural sequence
B16: RA416 (nucleic acid)
DNA: GCGCGTCCTGGACGGAATACCAGCATCGTCTTGATGCCCTTGGAAGTCCGTTCGCGGAAACGCGTACATCCAGCTGACGAGTCCCAAATAGGACGAAACGCGC
modifications: expressed or natural sequence
B17: RA422 (nucleic acid)
DNA: GCGCGTCCTGGATTCGCGGAAACGCGTACATCCAGCTGACGAGTCCCAAATAGGACGACGGAATACCAGCATCGTCTTGATGCCCTTGGAAGTCCGAACGCGC
modifications: expressed or natural sequence
B18: RA406 (nucleic acid)
DNA: GCGCGTCCTGGATTCGCGGAAACGCGTACATCCAGCTGACGAGTCCCCGGAATACCAGCATCGTCTTGATGCCCTTGGAAGTCCGAAATAGGACGAAACGCGC
modifications: expressed or natural sequence
B19: RA410 (nucleic acid)
DNA: B18 DNA with C48A, G50T, A51G, A79C, T82C, C83A, G85T
modifications: expressed or natural sequence
B20: RA040 (nucleic acid)
DNA: GCGCGTCCTGGATTCGCGAGAATACCAGCATCGTCTTGATGCCCTTGGAAGTCTGAAACGCGTACATCCAGCTGACGAGTCCCAAATAGGACGAAACGCGC
modifications: expressed or natural sequence
B21: RA041 (nucleic acid)
DNA: GCGCGTCCTGGATTCGCGGAAACGCGAGTGATACCAGCATCGTCTTGATGCCCTTGGCAGCACTTACATCCAGCTGACGAGTCCCAAATAGGACGAAACGCGC
modifications: expressed or natural sequence

These molecules were tested on Renilla luciferase RNA (assay: Barcoded aptazyme variant library screen: un-cleaved Renilla luciferase RNA by barcode read counts, HEK293-T cells). Conditions: un-cleaved Renilla luciferase RNA by barcode read counts; with 1 mM theophylline (ON) over without theophylline (OFF); HEK293-T cells; triplicate.
Format: cell-based
Summary of the method: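 Aptazyme variants (seven theophylline aptamers inserted after each T3H48 ribozyme nucleotide, 9-nt barcoded) cloned into the 3′ UTR of Renilla luciferase in psiCHECK-2; cells cultured ± theophylline, in triplicate. RNA and DNA barcodes amplified and sequenced; normalized read counts gave un-cleaved RNA fraction and ON/OFF fold-change.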

First: B1
Second: B2
The “Fold change in RNA expression between the ON state and the OFF state” value (shortened to “Fold change”) of the first is higher: 0.7 for the first, 0.6 for the second.

B3 and B4 are the same in “Fold change” value: 0.7 for the first, 0.7 for the second.

First: B5
Second: B6
The “Fold change” value of the first is lower: 0.6 for the first, 0.7 for the second.

Compared with B7, B8 is lower in “Fold change” value: 0.7 for the first, 0.6 for the second.

First: B9
Second: B10
The “Fold change” value of the first is lower: 0.6 for the first, 0.7 for the second.

B11 and B12 are the same in “Fold change” value: 0.7 for the first, 0.7 for the second.

B13 and B14 are the same in “Fold change” value: 0.7 for the first, 0.7 for the second.

B15 and B16 are the same in “Fold change” value: 0.7 for the first, 0.7 for the second.

Compared with B17, B18 is higher in “Fold change” value: 0.6 for the first, 0.7 for the second.

In the case of B19, the “Fold change” value is reported as 0.7.

Same assay, conditions: un-cleaved Renilla luciferase RNA, HEK293-T cells cultured with 1 mM theophylline (ON) over without theophylline (OFF); barcode read counts, triplicate

B20 and B21 are the same in “Fold change” value: 2.1 fold for the first, 2.1 fold for the second.
